The values that follow come from patent US20170044545, “APTAMER FOR BONDING TO AUTOTAXIN AND INHIBITING BIOLOGICAL ACTIVITY OF AUTOTAXIN, AND USE FOR SAME” (RIBOMIC INC., published 2017).

To fix the notation:
B1: SEQ 8 aptamer (ssRNA)
RNA: GGGUGGCAACAGGACAUGGAACGCGCCCCAACUGCUUGAAACAGGUUUUGCUGAGCAGUGAUGUGAGAUGCGUCUUCGUAC
modifications: 2'-F pyrimidines, 2'-OH purines
B2: SEQ 16(2) (ssRNA)
RNA: UCUGAGGGAAACAGGUUUUGCUCCUCGGA
modifications: 2'-F all pyrimidines and G8; 2'-OMe G4 A5 G6 G7 A9 A11 A13 G20 G27 G28 A29; 2'-OH A10 G14 G15
B3: SEQ 14 (ssRNA)
RNA: GGGCUAAACGCUCUGAGGGAAACAGGUUUUGCUCCUCGGAGCGUGGACGCCC
modifications: 2'-F pyrimidines, 2'-OH purines

The series concerns the target Autotaxin (ENPP2, NPP2) (Homo sapiens, UniProt Q13822 Q13822:36-863). The experiment in a line: inhibition.
With UCUGAGGGAGACAGGUUUUGCUCCUCGGA (ssRNA, 2'-F pyrimidines, 2'-OH purines) [SEQ 34], the IC50 (commonly the concentration that inhibits the measured activity by half) worked out at 340 nM. This counts as sub-micromolar.

UCUGAGGGAAACAGGUUUUGCUCCUCGGA (mixed, as 16(32) with 5' 40 kDa PEG (GL2-400GS2)-ssH linker instead of 5' idT) [SEQ 16(34)] displayed an IC50 of 4.2 nM.

As for UCUGAGGGAAACAGGUUUUGCUCCUCGGA (mixed, as 16(49) with 2'-OMe C2 U3 U22 C24 U25) [SEQ 16(65)], the IC50 is 0.3 nM.

The molecule UGGGAAGGAAACAGGUUUUGCUCUUCACC (ssRNA, 2'-F pyrimidines, 2'-OH purines) [SEQ 53] returned a half-inhibitory concentration (IC50) of 30 nM.

In turn, UCUGAGGGAAACAGGUUUUGCUCCUCGGA (mixed, as 16(38) with 5' 40 kDa PEG (GL2-400GS2)-ssH linker instead of 5' idT) [SEQ 16(39)] showed an IC50 of 3.8 nM.

On to UCUGGGGGAAACAGGUUUUGCUCCCCGGA (ssRNA, 2'-F pyrimidines, 2'-OH purines) [SEQ 44], for which the IC50 was 38 nM.

As to UCUGAGGGAAACAGGUUUUGCUCCUCGGA (mixed, as 16(21) with dT1 dC23 dC26) [SEQ 16(47)], the IC50 is 2.4 nM.

UCUGAGGGAAACAGGUUUUGCUCCUCGGA (mixed, as 16(21) with dC23 dC24 dC26) [SEQ 16(33)] displayed a half-maximal inhibitory concentration (IC50) of 0.6 nM. Compared with the last molecule, the IC50 is about 4-fold lower.

UCUGAGGGUAACAGGUUUUGCUCCUCGGA (ssRNA, 2'-F pyrimidines, 2'-OH purines) [SEQ 40]: the IC50 amounted to 49 nM.

With UCUGAGGGAAACAGGUUUUGCUCCUCGGA (mixed, as 16(32) with PS at A10) [SEQ 16(36)], half-maximal inhibition (IC50) required 0.3 nM.

For B1, the IC50 amounted to 49 nM.

With UCUGAGGGAAACAGGUUUUGCUCCUCGGA (ssRNA, as 16(4) with 5' 80 kDa PEG (GL2-800TS)-ssH linker instead of 5' idT) [SEQ 16(9)], the IC50 was 32 nM.

In turn, UCUGAGGGAAACAGGUUUUGCUCCUCGGA (mixed, as 16(45) with PS at A10) [SEQ 16(46)] had a 50% inhibitory concentration (IC50) of 2 nM.

UCCGAGGGAAACAGGUUUUGCUCCUCGCA (ssRNA, 2'-F pyrimidines, 2'-OH purines) [SEQ 47] showed an IC50 of 66 nM.

On to UCUGAGGGAAACAGGUUUUGCUCCUCGGA (ssRNA, as 16(1) + 5' and 3' idT) [SEQ 16(3)], for which the IC50 was 10 nM.

Molecule UCUGAGGGAAACAGGUUUUGCUCCUCGGA (ssRNA, 2'-F all pyrimidines; 2'-OMe G4 A5 G6 G7 G27 G28 A29; other purines 2'-OH) [SEQ 16(1)] registered an IC50 of 17 nM.

Consider CCGCUCUGAGGGAAACAGGUUUUGCUCCUCGGAGCGG (ssRNA, 2'-F pyrimidines, 2'-OH purines) [SEQ 15], for which half-maximal inhibition (IC50) required 7 nM.

In turn, UGAGGGAAACAGGUUUUGCUCCUCG (ssRNA, 2'-F pyrimidines, 2'-OH purines) [SEQ 17] came in with a half-maximal inhibitory concentration (IC50) of 37 nM.

For the molecule UCUGAGGGAAACAGGUUUUGCUCCUCGGA (ssRNA, as 16(4) with 5' 40 kDa PEG (GL2-400TS)-ssH linker instead of 5' idT) [SEQ 16(8)], the concentration for half-maximal inhibition (IC50) was determined as 42 nM.

As to UCUGAGGGAAACAGGUUUUGCUCCUCGGA (mixed, as 16(4) with dT22) [SEQ 16(13)], the half-maximal inhibitory concentration (IC50) was determined as 52 nM.

Turning to UCUGAGGGAAACAGGUUUUGCUCCUCGGA (mixed, as 16(21) with 5' 80 kDa PEG (GL2-800GS2)-ssH linker instead of 5' idT) [SEQ 16(43)], the half-inhibitory concentration (IC50) came out at 3 nM.

Turning to UCUGAGGGAAACAGGUUUUGCUCCUCGGA (mixed, as 16(48) with PS at A10) [SEQ 16(49)], the IC50 is 1.6 nM.

As to UUUGAAGGAAACAGGUUUUGCUCUUCGAG (ssRNA, 2'-F pyrimidines, 2'-OH purines) [SEQ 51], half-maximal inhibition (IC50) required 85 nM.

Molecule UCUGAGGGAAACAGGUUUUGCUCCUCGGA (mixed, as 16(21) with dT3) [SEQ 16(42)] yielded a half-maximal inhibitory concentration (IC50) of 1 nM.

Take UCUGAGGGAAACAGGUUUUGCUCCUCGGA (mixed, as 16(47) with dA10 and phosphorodithioate at A10) [SEQ 16(68)]: the midpoint of inhibition, the IC50, lay at 1.7 nM.

The molecule B2 returned a 50% inhibitory concentration (IC50) of 22 nM.

In turn, UCUGAGGGAAACAGGUUUUGCUCCUCGGA (mixed, as 16(21) with dC23 dC26) [SEQ 16(38)] gave a half-inhibitory concentration (IC50) of 1.3 nM.

Regarding UCUGAGGGUAACAGGUUAUGCUCCUCGGA (ssRNA, 2'-F pyrimidines, 2'-OH purines) [SEQ 26], the IC50 came to 510 nM.

With CUGAGGGAAACAGGUUUUGCUCCUCGG (ssRNA, 2'-F pyrimidines, 2'-OH purines) [SEQ 18], the IC50 is 34 nM.

In turn, UCUGAGGGAAACAGGUUUUGCUCCUCGGA (mixed, as 16(33) with 5' 40 kDa PEG (GL2-400GS2)-ssH linker instead of 5' idT) [SEQ 16(35)] returned a half-inhibitory concentration (IC50) of 3 nM. Against the preceding molecule, the IC50 is about 11-fold lower.

With B3, half-maximal inhibition (IC50) required 26 nM. This IC50 is about 8.7-fold higher than that of the molecule before.

AGGGAAACAGGUUUUGCUCCU (ssRNA, 2'-F pyrimidines, 2'-OH purines) [SEQ 21] registered an IC50 of 710 nM.

Consider UUCGAGGGAAACAGGUUUUGCUCCUCAAA (ssRNA, 2'-F pyrimidines, 2'-OH purines) [SEQ 52], for which the IC50 is 59 nM.

UAGAGAUGGAAACAGGUUUUGCUCAUCUCA (ssRNA, 2'-F pyrimidines, 2'-OH purines) [SEQ 50]: the IC50 is 21 nM.

Molecule UCUGAGGGAAACAGGUUUUGCUCCUCGGA (mixed, as 16(21) with 5' 80 kDa PEG (GL4-800GS2)-ssH linker instead of 5' idT) [SEQ 16(45)] yielded an IC50 of 13 nM.

On to UCUGAGGGAAACAGGUUUCGCUCCUCGGA (ssRNA, 2'-F pyrimidines, 2'-OH purines) [SEQ 32], for which the concentration for half-maximal inhibition (IC50) came out at 55 nM.

Take UCUGAGGGAAACAGGUUUUGCUCCUCGGA (mixed, as 16(4) with dG14 dG15) [SEQ 16(6)]: the half-maximal inhibitory concentration (IC50) was 5.9 nM.

In turn, UCUGAGGGAAACAGGUUUUGCUCCUCGGA (ssRNA, as 16(4) with PS at A10) [SEQ 16(7)] showed a half-maximal inhibitory concentration (IC50) of 7.3 nM.

With GAGGGAAACAGGUUUUGCUCCUC (ssRNA, 2'-F pyrimidines, 2'-OH purines) [SEQ 20], the 50% inhibitory concentration (IC50) came to 100 nM.

ACUGCUUGAAACAGGUUUUGCUGAGCAGU (ssRNA, 2'-F pyrimidines, 2'-OH purines) [SEQ 24]: the IC50 stood at 33 nM.

Take UCUGAGGGAAACAGGUUUUGCUCCUCGGA (mixed, as 16(21) with dC2) [SEQ 16(41)]: half-maximal inhibition (IC50) required 2.2 nM.

Turning to UCUGAGGGAAACAGGUCUUGCUCCUCGGA (ssRNA, 2'-F pyrimidines, 2'-OH purines) [SEQ 41], the IC50 is 43 nM.

On to UCUGAGGGAAACAGGUUUUGCUCCUCAGA (ssRNA, 2'-F pyrimidines, 2'-OH purines) [SEQ 30], for which half-maximal inhibition (IC50) was put at 50 nM.

The molecule UCUGAGGGAAACAGGUUUUGCUCCUCGGA (mixed, as 16(4) with dT1 dC2 dT3) [SEQ 16(10)] registered a 50% inhibitory concentration (IC50) of 21 nM.

For UCCGAGGGAAACAGGUUUUGCUCCUCGGA (ssRNA, 2'-F pyrimidines, 2'-OH purines) [SEQ 29], the half-inhibitory concentration (IC50) was 53 nM.

Turning to UCUGAGGGAAACAGGCUUUGCUCCUCGGA (ssRNA, 2'-F pyrimidines, 2'-OH purines) [SEQ 31], the half-maximal inhibitory concentration (IC50) came out at 130 nM. Compared with the last molecule, the IC50 is about 2.5-fold higher.

As for UCUGAGGGGAACAGGUUUUGCUCCUCGGA (ssRNA, 2'-F pyrimidines, 2'-OH purines) [SEQ 33], the IC50 was 690 nM.

CGAGGGAAACAGGUUUUGCUCCUCG (ssRNA, 2'-F pyrimidines, 2'-OH purines) [SEQ 19] displayed an IC50 of 36 nM.

For the molecule UCUGAGGGAAACAGGUUUUGCUCCUCGGA (mixed, as 16(33) with PS at A10) [SEQ 16(37)], the IC50 is 0.25 nM.

Molecule UCUGAGGGAAACAGGUUUUGCUCCUCGGA (mixed, as 16(21) with dT1) [SEQ 16(40)] gave a half-maximal inhibitory concentration (IC50) of 0.9 nM.

Consider UCUGAGGGAAACAGGUUUUGCUCCUCGGA (ssRNA, 2'-F pyrimidines, 2'-OH purines) [SEQ 16], for which inhibition was half-maximal at 12 nM (IC50). Compared with the last molecule, the IC50 is about 13-fold higher.

In turn, UCUGAGGGAAACAGGUUUUGCUCCUCGGA (mixed, as 16(4) with dC23 dC24) [SEQ 16(12)] came in with a 50% inhibitory concentration (IC50) of 37 nM. This IC50 lies about 3.1-fold higher than the previous one.

On to UCUGAGGGAAACAGGUUUUGCUCCUCGGA (mixed, as 16(43) with PS at A10) [SEQ 16(44)], for which 2.8 nM corresponded to half-maximal inhibition (IC50).

As to UCUGAGGGAAACAGGUUUUGCUCCUCGGA (mixed, as 16(4) with dG14) [SEQ 16(5)], the IC50 was found to be 6.7 nM. Against the preceding molecule, the IC50 is about 2.4-fold higher.

In turn, UCUGAGGGAAACAGGUUUUGCUCCUCGGA (mixed, as 16(47) with PS at A10 and 2'-OMe C2 U3) [SEQ 16(55)] came in with an IC50 of 0.4 nM.

In turn, UCUGAGGGAAACAGGUUUUGCUCCUCGGA (ssRNA, as 16(2) + 5' and 3' idT (G14 printed lower case, probably typo)) [SEQ 16(4)] displayed an IC50 of 17 nM.

Regarding UCUGAGGGAAACAGGUUUUGCUCCUCGAA (ssRNA, 2'-F pyrimidines, 2'-OH purines) [SEQ 45], the IC50 worked out at 29 nM.

As to UCUGAGGGAAACAGGUUUUGCUCCUCGGA (mixed, as 16(47) with 5' 80 kDa PEG (GL2-800GS2)-ssH linker instead of 5' idT) [SEQ 16(48)], the IC50 was found to be 7.8 nM. This IC50 is about 3.7-fold lower than that of the molecule before.

On to UCUGAGGGAAACAGGUUUUGCUCCUCGGA (mixed, as 16(4) with dT25 dC26) [SEQ 16(11)], for which half-maximal inhibition (IC50) required 27 nM.
